The text below walks through data of publication PMC6113224, “Structural basis of cell wall peptidoglycan amidation by the GatD/MurT complex of Staphylococcus aureus” (Scientific Reports, 2018).

For this assay, the target named is T1, GatD (glutamine amidotransferase-like protein GatD of Staphylococcus aureus) (Staphylococcus aureus, UniProt A0A0H2WZ38 1-243).
T1 construct: GatD, glutamine amidotransferase-like subunit of the GatD/MurT Lipid II amidation complex, Staphylococcus aureus; full length; source: E. coli BL21, co-expressed with MurT from pET21b (gatD/murT operon), purified (Ni-NTA, two rounds of SEC)
T1 sequence (looked up): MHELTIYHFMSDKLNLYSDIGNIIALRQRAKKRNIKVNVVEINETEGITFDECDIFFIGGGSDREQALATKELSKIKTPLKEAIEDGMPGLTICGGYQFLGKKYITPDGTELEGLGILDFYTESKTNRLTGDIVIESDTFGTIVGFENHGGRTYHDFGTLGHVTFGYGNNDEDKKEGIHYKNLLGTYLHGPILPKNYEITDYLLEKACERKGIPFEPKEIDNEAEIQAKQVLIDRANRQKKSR
Nature of the assay: SAXS; two-fold dilution series 0.5 to 8 mg/mL of GatD/MurT in SEC II buffer, extrapolated to zero concentration; beamline P12, DESY. The note with it: both partners purified.

B1: MurT (Mur ligase homolog MurT of Staphylococcus aureus) (enzyme, UniProt A0A0H2WZQ7 1-437, looked up)
chain: MRQWTAIHLAKLARKASRAVGKRGTDLPGQIARKVDTDILRKLAEQVDDIVFISGTNGKTTTSNLIGHTLKANNIQIIHNNEGANMAAGITSAFIMQSTPKTKIAVIEIDEGSIPRVLKEVTPSMMVFTNFFRDQMDRFGEIDIMVNNIAETISNKGIKLLLNADDPFVSRLKIASDTIVYYGMKAHAHEFEQSTMNESRYCPNCGRLLQYDYIHYNQIGHYHCQCGFKREQAKYEISSFDVAPFLYLNINDEKYDMKIAGDFNAYNALAAYTVLRELGLNEQTIKNGFETYTSDNGRMQYFKKERKEAMINLAKNPAGMNASLSVGEQLEGEKVYVISLNDNAADGRDTSWIYDADFEKLSKQQIEAIIVTGTRAEELQLRLKLAEVEVPIIVERDIYKATAKTMDYKGFTVAIPNYTSLAPMLEQLNRSFEGGQS
notes: MurT, Mur ligase homolog subunit of the GatD/MurT Lipid II amidation complex, Staphylococcus aureus; full length, untagged; MurT residues 1-35, 195-196 and 434-437 are not seen in the crystal structure
As usually defined, the stoichiometry N is the number of molecules, sites or subunits per partner or assembly. Take B1: the “stoichiometry N” value is 1.
